Experimental data from US20110105394A1 (Novo Nordisk, published 2011).
*1 amine or outer side, *2 acyl side, *3 side chain or, on linkers, in order; H or OH if unused. Bridges are numbered along the chain shown (N, C = ends). The star is where a group is joined. C20 diacid = O=C(O)CCCCCCCCCCCCCCCCCCC(=O)*; γGlu = O=C(O)[C@H](CCC(=O)[*:2])N[*:1]

Molecular target: T1, Amylin 3(a) receptor (human calcitonin receptor (CTa) with RAMP-3) (human) (UniProt P30988)
T1 sequence (looked up) 1: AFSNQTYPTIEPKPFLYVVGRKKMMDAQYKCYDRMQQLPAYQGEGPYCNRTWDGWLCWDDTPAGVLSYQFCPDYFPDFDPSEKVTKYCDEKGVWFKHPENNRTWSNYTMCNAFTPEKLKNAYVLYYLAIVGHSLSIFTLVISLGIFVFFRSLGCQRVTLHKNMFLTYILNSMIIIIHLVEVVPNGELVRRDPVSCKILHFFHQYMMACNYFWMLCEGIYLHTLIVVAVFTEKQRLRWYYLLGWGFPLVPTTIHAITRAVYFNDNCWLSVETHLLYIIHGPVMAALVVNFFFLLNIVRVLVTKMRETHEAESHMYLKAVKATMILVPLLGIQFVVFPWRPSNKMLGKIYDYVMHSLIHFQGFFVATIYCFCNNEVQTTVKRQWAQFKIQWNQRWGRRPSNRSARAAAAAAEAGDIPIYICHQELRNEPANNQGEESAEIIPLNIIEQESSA
T1 sequence (looked up) 2: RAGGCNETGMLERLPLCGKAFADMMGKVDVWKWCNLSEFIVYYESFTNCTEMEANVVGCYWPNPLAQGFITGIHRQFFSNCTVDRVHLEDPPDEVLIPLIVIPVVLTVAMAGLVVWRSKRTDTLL
Assay: cell-based or functional assay

Potency Luciferase: 0.1 nM
B1: N-alpha-[(S)-4-Carboxy-4-(19-carboxynonadecanoylamino)butyryl]-Glu-His-His-[Arg1,Arg17,Gln21]-pramlintide (peptide)
peptide: {C20 diacid-γGlu}-EHHRCNTATCATQRLANFLRHSSQNFGPILPPTNVGSNTY-NH2
modifications: disulfide 5-10
SMILES: CC[C@H](C)[C@H](NC(=O)[C@@H]1CCCN1C(=O)CNC(=O)[C@H](Cc1ccccc1)NC(=O)[C@H](CC(N)=O)NC(=O)[C@H](CCC(N)=O)NC(=O)[C@H](CO)NC(=O)[C@H](CO)NC(=O)[C@H](Cc1c[nH]cn1)NC(=O)[C@H](CCCNC(=N)N)NC(=O)[C@H](CC(C)C)NC(=O)[C@H](Cc1ccccc1)NC(=O)[C@H](CC(N)=O)NC(=O)[C@H](C)NC(=O)[C@H](CC(C)C)NC(=O)[C@H](CCCNC(=N)N)NC(=O)[C@H](CCC(N)=O)NC(=O)[C@@H](NC(=O)[C@H](C)NC(=O)[C@@H]1CSSC[C@H](NC(=O)[C@H](CCCNC(=N)N)NC(=O)[C@H](Cc2c[nH]cn2)NC(=O)[C@H](Cc2c[nH]cn2)NC(=O)[C@H](CCC(=O)O)NC(=O)CC[C@H](NC(=O)CCCCCCCCCCCCCCCCCCC(=O)O)C(=O)O)C(=O)N[C@@H](CC(N)=O)C(=O)N[C@@H]([C@@H](C)O)C(=O)N[C@@H](C)C(=O)N[C@@H]([C@@H](C)O)C(=O)N1)[C@@H](C)O)C(=O)N[C@@H](CC(C)C)C(=O)N1CCC[C@H]1C(=O)N1CCC[C@H]1C(=O)N[C@H](C(=O)N[C@@H](CC(N)=O)C(=O)N[C@H](C(=O)NCC(=O)N[C@@H](CO)C(=O)N[C@@H](CC(N)=O)C(=O)N[C@H](C(=O)N[C@@H](Cc1ccc(O)cc1)C(N)=O)[C@@H](C)O)C(C)C)[C@@H](C)O
